Results: patent publication US20180185450A1 (Sanofi, published 2018)
Numbered stars: 1 amine (or outer) side, 2 acyl side, 3 side chain; on linkers, the order of the positions; unused ones are H or OH. Square brackets hold non-standard residues; d marks the D form. Side chains are listed from the residue outwards. Ends that are not written are not given here. γGlu = O=C(O)[C@H](CCC(=O)[*:2])N[*:1]; x53 = not defined here; Aib = CC(C)(N)C(=O)O

What was measured:
[1] = target: human glucagon receptor (human, UniProt P47871 26-477); experiment: cell-based or functional assay
[2] = target: human GLP-1 receptor (human, UniProt P43220 24-463); experiment: cell-based or functional assay

Chain of human glucagon receptor (P47871 26-477): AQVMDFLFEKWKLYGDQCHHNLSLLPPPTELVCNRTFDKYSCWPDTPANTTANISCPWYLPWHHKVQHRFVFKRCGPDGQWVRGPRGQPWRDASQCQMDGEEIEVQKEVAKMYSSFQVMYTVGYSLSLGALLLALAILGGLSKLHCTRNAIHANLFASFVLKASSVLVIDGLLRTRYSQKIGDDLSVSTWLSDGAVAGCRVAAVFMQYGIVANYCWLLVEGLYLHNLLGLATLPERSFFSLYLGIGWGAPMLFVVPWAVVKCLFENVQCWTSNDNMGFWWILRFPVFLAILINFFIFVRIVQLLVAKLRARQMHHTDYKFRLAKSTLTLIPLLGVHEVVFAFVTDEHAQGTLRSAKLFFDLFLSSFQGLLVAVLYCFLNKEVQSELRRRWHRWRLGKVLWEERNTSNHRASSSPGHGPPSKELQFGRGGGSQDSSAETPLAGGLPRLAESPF

Binder | EC50 hGlucagon-R (cAMP) [1] | EC50 hGLP-1R (cAMP) [2]
HXQGTFTSDLSKQKESRRAQDFIEWLKRXGPSSGAPPPS (dSer at 2; K(γE-x53) at 14; dAla at 29; C-terminal NH2) [SEQ ID NO: 126] | 6.8 pM | 6.6 pM
HXQGTFTSDLSKQKDERRAKDFIEWLKNGGPSSGAPPPS (dSer at 2; K(γE-x53) at 14; C-terminal NH2) [SEQ ID NO: 87] | 1.3 pM | 3 pM
HXQGTFTSDLSKQKEKRRAQDFIEWLKNGGPSSGAPPPS (dSer at 2; K(γE-x53) at 14; C-terminal NH2) [SEQ ID NO: 88] | 1.6 pM | 2.4 pM
HXQGTFTSDLSKQKESRRAQDFIEWLKNGGPSSGAPPPK (dSer at 2; K(γE-x53) at 14; C-terminal NH2) [SEQ ID NO: 113] | 5.4 pM | 11.4 pM
HXQGTFTSDLSKQKESRRAXDFIEWLKNGGPSSGAPPPS (dSer at 2; K(x53) at 14; Aib at 20; C-terminal NH2) [SEQ ID NO: 119] | 41.2 pM | 30.8 pM
HXQGTFTSDLSKQKESRRAQDFIEWLKSGGPSSGAPPPS (dSer at 2; K(γE-x53) at 14; C-terminal NH2) [SEQ ID NO: 129] | 4.1 pM | 14.8 pM
HXQGTFTSDLSKQKESRRAQDFIEWLKRGGPSSGAPPPS (dSer at 2; K(γE-x53) at 14; C-terminal NH2) [SEQ ID NO: 127] | 9.4 pM | 14.7 pM
HXQGTFTSDLSKQKESRRAQDFIEWLKNGGPSSGAPPPK (dSer at 2; K(x53) at 14; C-terminal NH2) [SEQ ID NO: 114] | 31.1 pM | 62.3 pM
HXQGTFTSDLSKQKESXAAXLFIEWLKAGGPSSGAPPPS (dSer at 2; K(γE-x53) at 14; Aib at 17; Aib at 20; C-terminal NH2) [SEQ ID NO: 12] | 263 pM | 4.6 pM
HXQGTFTSDLSKQKESXAAQLFIEWLKAGGPSSGAPPPS (dSer at 2; K(GABA-x70) at 14; Aib at 17; C-terminal NH2) [SEQ ID NO: 131] | 24.9 pM | 9.1 pM
HXQGTFTSDLSKQKESRAAXLFIEWLKNGGPSSGAPPPS (dSer at 2; K(x53) at 14; Aib at 20; C-terminal NH2) [SEQ ID NO: 122] | 156 pM | 24.9 pM
HXQGTFTSDLSKQKESRAAXLFIEWLKNGGPSSGAPPPS (dSer at 2; K(γE-x53) at 14; Aib at 20; C-terminal NH2) [SEQ ID NO: 121] | 23.7 pM | 6.1 pM
H[Aib]QGTFTSDLSKQK([γGlu-x53])ESRRAQDFIEWLKNGGPSSGAPPPS-NH2 (reading uncertain) [SEQ ID NO: 117] | 16.5 pM | 3.8 pM
H[Aib]QGTFTSDLSKQK([γGlu-x53])ES[Aib]AAQDFIEWLKAGGPSSGAPPPS-NH2 (reading uncertain) [SEQ ID NO: 13] | 281 pM | 3.1 pM
HXQGTFTSDLSKQKESRRAQDFIEWLKNGGPSSGAPPPSK (dSer at 2; K(γE-x53) at 14; C-terminal NH2) [SEQ ID NO: 111] | 2.5 pM | 8.1 pM
HXQGTFTSDLSKQKESRRAQDFIEWLKNGGPSSGAPPPSK (dSer at 2; K(x53) at 14; C-terminal NH2) [SEQ ID NO: 112] | 21.1 pM | 33.6 pM
HXHGTFTSDLSKQKDSKAAQLFIEWLKAXGPSSGAPPPS (dSer at 2; K(γE-X70) at 14; dAla at 29; C-terminal NH2) [SEQ ID NO: 138] | 9.2 pM | 5.5 pM
HXQGTFTSDLSKQKDSQAAQDFIEWLKNTGPSSGAPPPS (dSer at 2; K(γE-x53) at 14; C-terminal NH2) [SEQ ID NO: 86] | 3.5 pM | 4.9 pM
HXQGTFTSDLSKQKDSRRAQDFIEWLKNAGPSSGAPPPS (dSer at 2; K(γE-x53) at 14; C-terminal NH2) [SEQ ID NO: 93] | 2.6 pM | 10.7 pM
HXQGTFTSDLSKQKDSRRAQDFIEWLKNGGPSSGAPPPS (dSer at 2; K(γE-x72) at 14; C-terminal NH2) [SEQ ID NO: 91] | 8.9 pM | 15.1 pM
HXQGTFTSDLSKQKESRRAQDFIEWLKNAGPSSGAPPPS (dSer at 2; K(γE-x53) at 14; C-terminal NH2) [SEQ ID NO: 95] | 9.2 pM | 20.6 pM
HXQGTFTSDLSKQKDSRRAQDFIEWLKNGGPSSGAPPPS (dSer at 2; K(γE-x53) at 14; C-terminal N(morpholin)) [SEQ ID NO: 102] | 1.1 pM | 7.2 pM
HXQGTFTSDLSKQKDSRRAQDFIEWLKNGGPSSGAPPPS (dSer at 2; K(γE-x69) at 14; C-terminal NH2) [SEQ ID NO: 90] | 3.7 pM | 8.8 pM
HXQGTFTSDLSKQKDSRRAQDFIEWLKNGGPSSGAPPPS (dSer at 2; K(γE-x53) at 14; C-terminal NH[(CH2)12-OH]) [SEQ ID NO: 107] | 37.8 pM | 188 pM

Binder | EC50 hGlucagon-R (cAMP) [1] | EC50 hGLP-1R (cAMP) [2]
HXQGTFTSDLSKQKDSQAAQDFIEWLKRGGPSSGAPPPS (dSer at 2; K(γE-x53) at 14; C-terminal NH2) [SEQ ID NO: 123] | 9.7 pM | 2.6 pM
HXQGTFTSDLSKQKDSRRAQDFIEWLKNGGPSSGAPPPS (dSer at 2; K(γE-x53) at 14; C-terminal N(diethyl)) [SEQ ID NO: 101] | 1.7 pM | 9.8 pM
HXQGTFTSDLSKQKDSRRAQDFIEWLKNGGPSSGAPPPS (dSer at 2; K(γE-x53) at 14; C-terminal NH(n-Propyl)) [SEQ ID NO: 10] | 1.7 pM | 9.2 pM
HXQGTFTSDLSKQKESRRAQDFIEWLKNTGPSSGAPPPS (dSer at 2; K(γE-x53) at 14; C-terminal NH2) [SEQ ID NO: 96] | 3.4 pM | 74.3 pM
HXQGTFTSDLSKQKDSRRAQDFIEWLKNTGPSSGAPPPS (dSer at 2; K(γE-x53) at 14; C-terminal NH2) [SEQ ID NO: 92] | 1 pM | 26 pM
HXQGTFTSDLSKQKDSRRAQDFIEWLKNGGPSSGAPPPS (dSer at 2; K(γE-x53) at 14; C-terminal NH[(CH2)17-CH3]) [SEQ ID NO: 109] | 28.6 pM | 430 pM
HXQGTFTSDLSKQKDSRRAQDFIEWLKNGGPSSGAPPPS (dSer at 2; K(γE-x60) at 14; C-terminal NH2) [SEQ ID NO: 89] | 13.7 pM | 35.6 pM
HXQGTFTSDLSKQKDSRRAQDFIEWLKNGGPSSGAPPPS (dSer at 2; K(γE-x53) at 14; C-terminal NH(tert.butyl)) [SEQ ID NO: 100] | 2 pM | 13.5 pM
HXQGTFTSDLSKQKDSRRAQDFIEWLKSGGPSSGAPPPS (dSer at 2; K(γE-x53) at 14; C-terminal NH2) [SEQ ID NO: 128] | 1.6 pM | 6.2 pM
HXQGTFTSDLSKQKDSRRAQDFIEWLKNGGPSSGAPPPS (dSer at 2; K(γE-x53) at 14; C-terminal NH(pyrrolidin)) [SEQ ID NO: 98] | 1.4 pM | 9.6 pM
HXQGTFTSDLSKQKDSRRAQDFIEWLKNGGPSSGAPPPS (dSer at 2; K(γE-x53) at 14; C-terminal NH[(CH2)13-CH3]) [SEQ ID NO: 110] | 7.2 pM | 213 pM
HXQGTFTSDLSKQKDSRRAQDFIEWLKNGGPSSGAPPPS (dSer at 2; K(γE-x53) at 14; C-terminal NH(CH2-CF3)) [SEQ ID NO: 103] | 1.7 pM | 10.1 pM
HXQGTFTSDLSKQKESXAAQDFIEWLKAGGPSSGAPPPS (dSer at 2; K(γE-x70) at 14; Aib at 17; C-terminal NH2) [SEQ ID NO: 11] | 25.7 pM | 3.6 pM
HXQGTFTSDLSKQKDSRRAQDFIEWLKNGGPSSGAPPPS (dSer at 2; K(γE-x53) at 14; C-terminal NH[(CH2)14-CH3]) [SEQ ID NO: 108] | 9 pM | 197 pM
HXQGTFTSDLSKQKDSRRAXDFIEWLKNGGPSSGAPPPS (dSer at 2; K(γE-x53) at 14; Aib at 20; C-terminal NH2) [SEQ ID NO: 118] | 4.3 pM | 15.3 pM
HXQGTFTSDLSKQKDSRRAQDFIEWLKNGGPSSGAPPPS (dSer at 2; K(γE-x53) at 14; C-terminal NH[(CH2)15-CH3]) [SEQ ID NO: 106] | 10.5 pM | 210 pM
HXQGTFTSDLSKQKDSRRAQDFIEWLKNGGPSSGAPPPS (dSer at 2; K(γE-x53) at 14; C-terminal NH[(CH2-CH2-O)24-CH2-CH2-COOH]) [SEQ ID NO: 105] | 1 pM | 7.9 pM
HXQGTFTSDLSKQKDSRRAQDFIEWLKNGGPSSGAPPPS (dSer at 2; K(γE-x53) at 14; C-terminal NH(benzyl)) [SEQ ID NO: 99] | 2.6 pM | 15.9 pM
HXQGTFTSDLSKQKESXAAQDFIEWLKAGGPSSGAPPPS (dSer at 2; K(γE-x53) at 14; Aib at 17; C-terminal NH2) [SEQ ID NO: 14] | 94.7 pM | 4.6 pM
HXQGTFTSDLSKQKDSRRAQDFIEWLKNXGPSSGAPPPS (dSer at 2; K(γE-x53) at 14; dAla at 29; C-terminal NH2) [SEQ ID NO: 94] | 2.1 pM | 5.2 pM
HXQGTFTSDLSKQKESRRAQDFIEWLKNGGPSSGAPPPS (dSer at 2; K(γE-x53) at 14; C-terminal NH2) [SEQ ID NO: 116] | 3.6 pM | 6 pM
HXQGTFTSDLSKQKDSQAAQDFIEWLKRAGPSSGAPPPS (dSer at 2; K(γE-x53) at 14; C-terminal NH2) [SEQ ID NO: 124] | 8.4 pM | 3 pM
HXQGTFTSDLSKQKDSRRAQDFIEWLKNGGPSSGAPPPS (dSer at 2; K(γE-x53) at 14; C-terminal NH[(CH2-CH2-O)4-CH2-CH2-COOH]) [SEQ ID NO: 104] | 1.1 pM | 6.5 pM
